Test results from article PMC5264599.

B1: wild type p16-GFP [not stated] / CDK4 (Cyclin-dependent protein kinase), endogenous in 293T cells [human (endogenous in 293T)] (parent)
chain 1: MEPAAGSSMEPSADWLATAAARGRVEEVRALLEAGALPNAPNSYGRRPIQVMMMGSARVAELLLLHGAEPNCADPATLTRPVHDAAREGFLDTLVVLHRAGARLDVRDAWGRLPVDLAEELGHRDVARYLRAAAGGTRGSNHARIDAAEGPSDIPD
chain 2: MATSRYEPVAEIGVGAYGTVYKARDPHSGHFVALKSVRVPNGGGGGGGLPISTVREVALLRRLEAFEHPNVVRLMDVCATSRTDREIKVTLVFEHVDQDLRTYLDKAPPPGLPAETIKDLMRQFLRGLDFLHANCIVHRDLKPENILVTSGGTVKLADFGLARIYSYQMALTPVVVTLWYRAPEVLLQSTYATPVDMWSVGCIFAEMFRRKPLFCGNSEADQLGKIFDLIGLPPEDDWPRDVSLPRGAFPPRGPRPVQSVVPEMEESGAQLLLEMLTFNPHKRISAFRALQHSYLHKDEGNPE

Variants of: B1
Experiment: co-immunoprecipitation (anti-GFP IP, anti-CDK4 immunoblot, photodensitometry)
Details: with CDK4 (Cyclin-dependent protein kinase), scale: relative intensity
[1] = 1 mM H2O2 for 24 h, read off a plot

response [1] | response (no H2O2, read off a plot) | Variant
1.7 | 1.1 | chain 1 S152A
1.4 | 0.92 | chain 1 S8A
0.92 | 0.85 | chain 1 S140A
